This note sets out measurements from paper PMC10542344 (Communications Biology, 2023).

Positions count from the first letter of the chain named. Numbers in names are those of the source.

B1: BDG11.001 (clone 11.4C_11.001 as soluble human IgG1) (antibody, V domains shown)
VH: EVQLVQSGAEVKKPGESLKISCKGSGYSFTSYWIGWVRQMPGKGLEWMGIIYPSDSDTRYSPSFQGQVTISADKSISTAYLQWSSLKASDTAMYYCARYPNYGAFDIWGQGTMVTVSS
VL: EIVLTQSPATLSLSPGERATLSCRASQSVWSYLAWYQQKPGQAPRLLIYDASNRATGIPARFSGSGSGTDFTLTISSLEPEDFAVYYCQQYFYWGWPFGQGTKLEIK
notes: as the VH of m6 (clone 11.4C_11.001); the same heavy chain stands in 11.003 (PDB 7Z2M); changes are against the VH of AAL160; human IgG1 heavy-chain constant region, from the plasmid pSF-CMV-HuIgG1_HC; as the VL of m6 (clone 11.4C_11.001); has W30, Y93, W94; the light chain of 11.003 in PDB 7Z2M differs from it at position 30 (Phe for Trp); as in the light chain of 11.003 in PDB 7Z2M; IgG1; also …
B2: BDG11.006 (human IgG1) (antibody, V domains shown)
VH: B1 VH
VL: B1 VL with W94N
notes: as the VH of m7 (BDG11.001); human IgG1 heavy-chain constant region, from the plasmid pSF-CMV-HuIgG1_HC; as the VL of m7 (BDG11.001) with one substitution; light-chain numbering; as in the light chain of 11.003 in PDB 7Z2M; IgG1; single mutant of BDG11.001; source: Expi-CHO, transfected, purified from the supernatant (protein A beads); copies: 2 + 2
B3: BDG11.003 (human IgG1) (antibody, V domains shown)
VH: B1 VH
VL: B1 VL with W30F
notes: as the VH of m7 (BDG11.001); human IgG1 heavy-chain constant region, from the plasmid pSF-CMV-HuIgG1_HC; as the VL of m7 (BDG11.001) with W30F; that 11.003 is the W30F variant follows from the sentence that 11.003 has Phe30 in L1 where AAL160 has Ser; light-chain numbering; IgG1; seven mutations against AAL160; source: Expi-CHO, transfected, purified from the supernatant (protein A beads); …
B4: BDG11.007 (human IgG1) (antibody, V domains shown)
VH: B1 VH
VL: B1 VL with Y93N
notes: as for B2
B5: BDG11.004 (human IgG1) (antibody, V domains shown)
VH: B1 VH
VL: B1 VL with W30S
notes: as for B2
B6: AAL160 Fab (Fab, V domains shown)
VH: B1 VH with P100T, Y102W, G103D
VL: B1 VL with W30S, Y91R, F92S, Y93N, G95M, W96F
notes: Fab heavy-chain fragment of AAL160 after papain digestion; light chain of AAL160; also called parent AAL160 Fab; source: papain digestion of AAL160 at 37 °C, Fab purified over Protein A Sepharose Fast Flow
B7: clone 11.4_C13 scFv displayed on yeast (scFv, V domains shown)
VH: B1 VH with P100T, G103E
VL: B1 VL with Y91S, G95P, W96F
notes: as the VH of m1 (AAL160) with changes; has no T100P; three repeats of the G4S linker between VH and VL; as the VL of m1 (AAL160) with changes; source: yeast surface display, EBY-100, induced with galactose
B8: clone 11.4_C12 scFv displayed on yeast (scFv, V domains shown)
VH: B1 VH
VL: B1 VL with G95S
notes: as the VH of m1 (AAL160) with changes in CDR H3; three repeats of the G4S linker between VH and VL; as the VL of m1 (AAL160) with changes; has W30, Y93 and W94 (light-chain numbering); also called 114_R5_C12; source: yeast surface display, EBY-100, induced at 37 to 40 °C
B9: AAL160 scFv displayed on yeast (scFv, V domains shown)
VH: B1 VH with P100T, Y102W, G103D
VL: B1 VL with W30S, Y91R, F92S, Y93N, G95M, W96F
notes: VH of AAL160; also held by the deposited AAL160 Fab structures; three repeats of the G4S linker between VH and VL; VL of AAL160; scFv in heavy to light-chain orientation; VH 99% identical to IGHV5-51*01, VL 100% identical to IGKV3-11*01; also called template antibody; anti-IL-1β antibody; source: yeast surface display, EBY-100, induced with galactose
B10: clone 11.1_C3 scFv displayed on yeast (scFv, V domains shown)
VH: B1 VH with P100T, A104N
VL: B1 VL with Y91G, G95P
notes: as the VH of m1 (AAL160) with changes in CDR H3; numbers count on the scFv; three repeats of the G4S linker between VH and VL; as the VL of m1 (AAL160) with changes in CDR L1 and L3; First-generation clone from library A_11.1; nine mutations against AAL160, eight in H3 and L3 and one in L1; source: yeast surface display, EBY-100, induced with galactose
B11: clone 11.1_C5 scFv displayed on yeast (scFv, V domains shown)
VH: B1 VH with P100T, A104N
VL: B1 VL with S31W, Y91G, G95P
notes: as the VH of m1 (AAL160) with changes; three repeats of the G4S linker between VH and VL; as the VL of m1 (AAL160) with changes; First-generation clone from library A_11.1; source: yeast surface display, EBY-100, induced with galactose

T6 sequence (P02769 25-607): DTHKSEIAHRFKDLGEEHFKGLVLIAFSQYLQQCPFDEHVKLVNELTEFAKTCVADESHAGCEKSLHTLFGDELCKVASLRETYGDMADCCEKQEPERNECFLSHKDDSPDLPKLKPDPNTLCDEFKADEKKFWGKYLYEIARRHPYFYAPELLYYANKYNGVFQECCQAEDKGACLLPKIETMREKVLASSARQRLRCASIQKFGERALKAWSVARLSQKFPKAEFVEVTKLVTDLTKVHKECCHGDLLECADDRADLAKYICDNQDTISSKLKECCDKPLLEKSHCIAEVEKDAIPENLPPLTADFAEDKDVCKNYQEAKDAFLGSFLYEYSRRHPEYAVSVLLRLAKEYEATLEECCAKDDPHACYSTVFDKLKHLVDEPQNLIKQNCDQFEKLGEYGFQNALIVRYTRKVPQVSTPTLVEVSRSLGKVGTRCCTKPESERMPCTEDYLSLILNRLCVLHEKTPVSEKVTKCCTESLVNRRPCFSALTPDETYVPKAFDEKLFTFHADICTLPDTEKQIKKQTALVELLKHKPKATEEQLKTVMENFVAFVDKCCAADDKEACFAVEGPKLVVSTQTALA
T5 sequence (P20333 23-461): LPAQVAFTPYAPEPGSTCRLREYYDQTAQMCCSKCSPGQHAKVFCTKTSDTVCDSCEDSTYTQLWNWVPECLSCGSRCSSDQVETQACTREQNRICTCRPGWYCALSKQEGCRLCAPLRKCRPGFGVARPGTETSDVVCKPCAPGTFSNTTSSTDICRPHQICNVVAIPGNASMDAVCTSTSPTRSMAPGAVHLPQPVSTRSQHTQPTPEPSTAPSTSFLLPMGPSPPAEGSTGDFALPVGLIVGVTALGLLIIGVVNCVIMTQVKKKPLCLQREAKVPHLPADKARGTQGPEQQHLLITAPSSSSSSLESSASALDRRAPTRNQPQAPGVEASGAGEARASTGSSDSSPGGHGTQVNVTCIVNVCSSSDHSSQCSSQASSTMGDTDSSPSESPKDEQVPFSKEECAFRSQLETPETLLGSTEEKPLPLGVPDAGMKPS
T1 sequence (Q16552 24-155): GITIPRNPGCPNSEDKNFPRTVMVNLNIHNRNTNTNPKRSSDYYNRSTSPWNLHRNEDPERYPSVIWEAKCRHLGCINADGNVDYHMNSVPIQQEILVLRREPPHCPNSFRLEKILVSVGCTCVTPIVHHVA
T3 sequence (P01308 whole entry, looked up): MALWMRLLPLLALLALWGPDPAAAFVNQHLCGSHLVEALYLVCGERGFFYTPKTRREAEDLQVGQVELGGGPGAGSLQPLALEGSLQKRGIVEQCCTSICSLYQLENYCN

The first assay concerns the target T1, human IL-17A (recombinant) (human, UniProt Q16552). Nature of the assay: cell-based or functional assay.
Conditions: not given
On to B1, for which the “IC50 of inhibition of IL-17A dependent IL-6 secretion by BJ fibroblasts (1 nM IL-17A; blocks IL-17A binding to IL-17RA on the cells)” value came out at 4.8 nM.
Turning to B2, the “IC50 of inhibition of IL-17A dependent IL-6 secretion by BJ fibroblasts (1 nM IL-17A; blocks IL-17A binding to IL-17RA on the cells)” value was 50.5 nM.
On to B3, for which the “IC50 of inhibition of IL-17A dependent IL-6 secretion by BJ fibroblasts (1 nM IL-17A; blocks IL-17A binding to IL-17RA on the cells)” value was 33.9 nM.
On to B4, for which the “IC50 of inhibition of IL-17A dependent IL-6 secretion by BJ fibroblasts (1 nM IL-17A; blocks IL-17A binding to IL-17RA on the cells)” value is 286 nM.
Consider B5, for which the “IC50 of inhibition of IL-17A dependent IL-6 secretion by BJ fibroblasts (1 nM IL-17A; blocks IL-17A binding to IL-17RA on the cells)” value is 163 nM.

In the next assay the target is T2, recombinant human IL-1β (Homo sapiens).
T2 construct: human interleukin-1 beta; also called IL-1b
Nature of the assay: crystal structure; AAL160 Fab with a 1.5-fold excess of recombinant human IL-1β, complex purified by SEC; 3.30 Å. The settings on record: both partners purified. (In general: SEC sorts molecules by how far they enter the pores of the column.)
In the case of B6, the binding result is listed as “binds”.

Another assay addresses T3, insulin (Homo sapiens (assumed), UniProt P01308).
T3 construct: insulin B chain; insulin A chain
As to the kind of experiment: ELISA; polyspecificity assay; plates coated with 5 μg/ml antigen, blocked with PBS 0.5% BSA; 100 nM antibody 1 h at RT; anti-human Fc-HRP. The conditions noted are these: both partners purified.
For the molecule B1, the binding result is on record as “no binding (tested: 100 nM antibody)”.
Take B2: the binding result is reported as “no binding (tested: 100 nM antibody)”.
For the molecule B3, the binding result was “no binding (tested: 100 nM antibody)”.
With B4, the binding result is reported as “no binding (tested: 100 nM antibody)”.
With B5, the binding result is listed as “no binding (tested: 100 nM antibody)”.

In a further assay the target is T4, human IL-2 (Homo sapiens, UniProt P60568).
T4 construct: human interleukin-2; also called hIL-2
T4 sequence (P60568 21-153): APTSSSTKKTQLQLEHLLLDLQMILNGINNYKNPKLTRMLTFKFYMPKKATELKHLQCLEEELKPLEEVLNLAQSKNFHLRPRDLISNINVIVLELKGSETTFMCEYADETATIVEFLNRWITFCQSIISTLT
Described as above. The conditions noted are these: both partners purified.
Take B1: the binding result is “no binding (tested: 100 nM antibody)”.
For B2, the binding result is listed as “no binding (tested: 100 nM antibody)”.
As for B3, the binding result is reported as “no binding (tested: 100 nM antibody)”.
B4: the binding result is on record as “no binding (tested: 100 nM antibody)”.
B5: the binding result is reported as “no binding (tested: 100 nM antibody)”.

A further assay concerns the target T5, hTNFR2 (Homo sapiens, UniProt P20333).
T5 construct: human TNF receptor 2
The assay is described as above. The conditions noted are these: both partners purified.
In the case of B1, the binding result is listed as “no binding (tested: 100 nM antibody)”.
Same read-out and setting: in the case of B2 it was “no binding (tested: 100 nM antibody)”; in that of B3, “no binding (tested: 100 nM antibody)”; in that of B4, “no binding (tested: 100 nM antibody)”.
Turning to B5, the binding result is reported as “no binding (tested: 100 nM antibody)”.

The next assay concerns the target T6, BSA (Bos taurus, UniProt P02769).
T6 construct: bovine serum albumin, printed only as BSA; a BSA coating is not described
The assay is described as above. The settings on record: both partners purified.
As to B1, the binding result is “no binding (tested: 100 nM antibody)”.
Same read-out and setting: as for B2, the entry is “no binding (tested: 100 nM antibody)”; as for B3, “no binding (tested: 100 nM antibody)”.
Turning to B4, the binding result is “no binding (tested: 100 nM antibody)”.
Regarding B5, the binding result is given as “no binding (tested: 100 nM antibody)”.

A further assay addresses T1, human IL-17A (recombinant). As to the kind of experiment: SPR; Biacore T100, CM5 chip; tested antibody captured on anti-human IgG to about 500 RU; IL-17A analyte in PBS 0.05% tween, two- or three-fold dilutions, multi-cycle kinetics. The settings on record: both partners purified. (In general: Surface plasmon resonance follows binding to a sensor surface in real time, without labels.)
In the case of B1, the equilibrium dissociation constant (Kd) was determined as 0.75 nM.

The next assay deals with T7, biotinylated human IL-17A (Homo sapiens, UniProt Q16552, biotin (site not stated)).
T7 construct: human interleukin-17A; also called hIL-17A; biotinylated IL-17A
T7 sequence (Q16552 24-155): as the sequence (Q16552 24-155) above
As to the kind of experiment: flow cytometry on cells; scFv displayed on yeast EBY-100; incubated with soluble antigen (biotinylated human IL-17A in PBS 0.1% BSA, 1 h), labelled with anti-Myc-FITC (expression) and streptavidin-APC (binding). The conditions noted are these: one partner purified. (In general: In flow cytometry, cells or beads pass a laser one at a time.)
With B7, the binding result is reported as “binds”.
As to B8, the binding result was “binds”.
The same measure, in the same setting: as for B9, the entry is “no binding”.
Turning to B10, the binding result was “binds”.
Take B11: the binding result is on record as “binds”.

A further assay concerns the target T8, IL-1β (used in the yeast display FACS analysis) (Homo sapiens, UniProt P01584).
T8 construct: interleukin-1 beta; Species is said only of the IL-1β of the crystal (human)
The description is as above. The conditions noted are these: one partner purified.
Consider B9, for which the binding result is “binds”.
Still for that read-out and setting: in the case of B10 it was “no binding”.
On the same count and under the same terms, in the case of B11 it was “no binding”.

One may read the Kd as a measure of binding affinity in units of concentration.
